# Experimental data reported in patent US20210340201A1 (published 2021).
# T1: KRAS G12V peptide on HLA-DRB1*11:04 (human)
# T1 peptide: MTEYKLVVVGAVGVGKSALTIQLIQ
# T2: KRAS G12V peptide on HLA-DRB1*11:01 (human)
# T2 peptide: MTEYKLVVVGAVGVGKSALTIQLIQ
# Tests used:
# [1] = target: T1, KRAS G12V peptide on HLA-DRB1*11:04; experiment: cytokine release
# Experimental: (§1) ELISA assays were performed by incubating 50,000 T cells in 96 well round bottom plates with 100,000 autologous B cells or B-LCL lines pulsed with specific concentrations of peptides in RPMI (GIBCO™) supplemented with 5% heat inactivated fetal bovine serum. IFN-γ in supernatants was diluted 1:1, 1:10, and 1:100 and quantitated using human IFN-γ ELISA kit (EBIOSCIENCE™) in technical duplicate or triplicate. HLA blocking experiments were carried out by adding 20 μg/ml antibody anti class I (BIOLEGEND®, cat. 311411) anti HLA DR (BIOLEGEND® clone L243, cat. 307611) or HLA-DQ (ABCAM™, clone spv-I3, cat. ab23632) to the antigen presenting cells one hour prior to adding peptide. ELISpot assays were performed by incubating 20,000-100,000 T cells with 200,000 autologous B cells pulsed with 20 μg/ml of each peptide in CTL medium using the human IFN-γ ELISPOT-PRO™ kit (MABTECH™) according to the manufacturer's instructions. For intracellular IFN-γ staining, PBMC (100,000) were incubated with autologous B cells (100,000) pulsed with the indicated peptides (20 μg/ml) in the presence of brefeldin A (GOLGIPLUG™, BD BIOSCIENCES™) and then fixed and permeabilized using the BD™ intracellular staining kit (BD BIOSCIENCES™) and analyzed using a FACSCANTO™ II flow cytometer.
# [2] = target: T2, KRAS G12V peptide on HLA-DRB1*11:01; experiment: cytokine release
# Experimental: as §1
binding result [1],binding result [2],Binder
recognises,recognises,"KRAS G12V clone 9 TCR (TCR, V domains shown) Valpha: SVSQHNHHVILSEAASLELGCNYSYGGTVNLFWYVQYPGQHLQLLLKYFSGDPLVKGIKGFEAEFIKSKFSFNLRKPSVQWSDTAEYFCAVTVVNAGNNRKLIWGLGTSLAVNP Vbeta: AGVIQSPRHEVTEMGQEVTLRCKPISGHDYLFWYRQTMMRGLELLIYFNNNVPIDDSGMPEDRFSAKMPNASFSTLKIQPSEPRDSAVYFCASSLGLPGTDTQYFGPGTRLTVL"
recognises,recognises,"KRAS G12V clone 3 TCR (TCR, V domains shown) Valpha: AQSVTQPDIHITVSEGASLELRCNYSYGATPYLFWYVQSPGQGLQLLLKYFSGDTLVQGIKGFEAEFKRSQSSFNLRKPSVHWSDAAEYFCAVGRSNSGGYQKVTFGIGTKLQVIP Vbeta: IHQWPATLVQPVGSPLSLECTVEGTSNPNLYWYRQAAGRGLQLLFYSVGIGQISSEVPQNLSASRPQDRQFILSSKKLLLSDSGFYLCAWSALAGARDTQYFGPGTRLTVL"
